Blank lines part the entries; values can stand above or below the molecule they belong to.
What was measured:
[1] = target: human natriuretic polypeptide receptor hNPR1 (the membrane-bound guanylate cyclase receptor of BNP) (human) (UniProt P16066); experiment: cell-based or functional assay
[2] = target: T1, human natriuretic polypeptide receptor hNPR1 (the membrane-bound guanylate cyclase receptor of BNP) (human, UniProt P16066 33-1061); experiment: cell-based or functional assay
T1 sequence (looked up): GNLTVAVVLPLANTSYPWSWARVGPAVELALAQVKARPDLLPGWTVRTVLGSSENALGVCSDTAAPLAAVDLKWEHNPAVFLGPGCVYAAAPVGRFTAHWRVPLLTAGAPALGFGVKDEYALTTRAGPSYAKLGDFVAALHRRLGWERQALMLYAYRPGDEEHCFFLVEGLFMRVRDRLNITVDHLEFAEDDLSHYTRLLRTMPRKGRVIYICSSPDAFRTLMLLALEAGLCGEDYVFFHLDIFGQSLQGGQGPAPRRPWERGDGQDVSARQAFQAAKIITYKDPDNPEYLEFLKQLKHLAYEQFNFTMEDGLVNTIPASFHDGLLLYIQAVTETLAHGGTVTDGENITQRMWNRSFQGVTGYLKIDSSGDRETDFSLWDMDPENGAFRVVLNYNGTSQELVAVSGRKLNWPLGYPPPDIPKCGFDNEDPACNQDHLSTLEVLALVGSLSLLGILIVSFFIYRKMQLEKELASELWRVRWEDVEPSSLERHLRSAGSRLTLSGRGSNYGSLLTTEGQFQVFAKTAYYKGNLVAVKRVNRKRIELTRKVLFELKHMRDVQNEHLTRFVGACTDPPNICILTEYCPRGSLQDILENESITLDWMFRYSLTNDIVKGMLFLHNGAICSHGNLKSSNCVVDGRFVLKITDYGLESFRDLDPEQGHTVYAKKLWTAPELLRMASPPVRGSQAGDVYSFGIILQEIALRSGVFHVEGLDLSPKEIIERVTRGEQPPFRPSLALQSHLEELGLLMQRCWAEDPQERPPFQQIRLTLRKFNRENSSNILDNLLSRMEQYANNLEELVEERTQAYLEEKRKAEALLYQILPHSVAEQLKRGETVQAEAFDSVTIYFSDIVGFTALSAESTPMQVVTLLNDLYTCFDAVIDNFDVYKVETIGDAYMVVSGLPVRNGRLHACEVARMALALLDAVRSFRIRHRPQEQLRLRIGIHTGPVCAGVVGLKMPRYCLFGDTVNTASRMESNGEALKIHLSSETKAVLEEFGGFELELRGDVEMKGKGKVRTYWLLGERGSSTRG

Log dose ratio from hBNP(1-32) (NPR-1 cGMP assay, HEK293T/17) [1]: 1.5
Maximum % control (cGMP HTRF, % response to BNP1-32 10 µM) [1]: 97.4%
PEC50 (n) (cGMP HTRF, transiently transfected HEK293T/17 cells) [1]: 6.57
Potency fold loss from hBNP(1-32) (NPR-1 cGMP assay, HEK293T/17) [1]: 31.8 fold
pEC50 [1]: 6.57
Molecule: PAS600-hBNP(1-32) (ligand)

Log dose ratio from hBNP(1-32) (NPR-1 cGMP assay, HEK293T/17) [1]: 1.58
Maximum % control (cGMP HTRF, % response to BNP1-32 10 µM) [1]: 97.3%
PEC50 (n) (cGMP HTRF, transiently transfected HEK293T/17 cells) [1]: 6.49
Potency fold loss from hBNP(1-32) (NPR-1 cGMP assay, HEK293T/17) [1]: 38.2 fold
fold reduction in potency relative to PAS200 (NPR-1 cGMP assay, HEK293T/17) [1]: 5.2 fold
pEC50 [1]: 6.49
Molecule: PAS400-hBNP(1-32) (ligand)

Log dose ratio from hBNP(1-32) (NPR-1 cGMP assay, HEK293T/17) [1]: 1.54
Maximum % control (cGMP HTRF, % response to BNP1-32 10 µM) [1]: 89.1%
PEC50 (n) (cGMP HTRF, transiently transfected HEK293T/17 cells) [1]: 6.53
Potency fold loss from hBNP(1-32) (NPR-1 cGMP assay, HEK293T/17) [1]: 34.3 fold
pEC50 [1]: 6.53
Molecule: PAS800-hBNP(1-32) (ligand)

log EC50 (cGMP, TR-FRET, % Activation, CHO-K1 cells transfected with hNPR1) [2]: -7.28
log dose ratio from hBNP(1-32) (hNPR1 cGMP agonist assay) [2]: -1.95
potency fold loss from hBNP(1-32) (hNPR1 cGMP agonist assay) [2]: 89 fold
B1: Compound 5, hBNP(1-30)-(SEQ ID No:2)10-A (PAS attached to carboxy group of the C-terminal arginine 30) (ligand)
chain: SPKMVQGSGCFGRKMDRISSSSGLGCKVLRASPAAPAPASPAAPAPSAPAASPAAPAPASPAAPAPSAPAASPAAPAPASPAAPAPSAPAASPAAPAPASPAAPAPSAPAASPAAPAPASPAAPAPSAPAASPAAPAPASPAAPAPSAPAASPAAPAPASPAAPAPSAPAASPAAPAPASPAAPAPSAPAASPAAPAPASPAAPAPSAPAASPAAPAPASPAAPAPSAPAA

log EC50 (cGMP, TR-FRET, % Activation, CHO-K1 cells transfected with hNPR1) [2]: -7.31
log dose ratio from hBNP(1-32) (hNPR1 cGMP agonist assay) [2]: -1.92
potency fold loss from hBNP(1-32) (hNPR1 cGMP agonist assay) [2]: 83 fold
B2: Compound 3, P-(SEQ ID No:2)10-A-hBNP(6-32) (PAS attached to N-terminus of glutamine 6) (ligand)
chain: PASPAAPAPASPAAPAPSAPAASPAAPAPASPAAPAPSAPAASPAAPAPASPAAPAPSAPAASPAAPAPASPAAPAPSAPAASPAAPAPASPAAPAPSAPAASPAAPAPASPAAPAPSAPAASPAAPAPASPAAPAPSAPAASPAAPAPASPAAPAPSAPAASPAAPAPASPAAPAPSAPAASPAAPAPASPAAPAPSAPAAQGSGCFGRKMDRISSSSGLGCKVLRRH

log EC50 (cGMP, TR-FRET, % Activation, CHO-K1 cells transfected with hNPR1) [2]: -7.84
log dose ratio from hBNP(1-32) (hNPR1 cGMP agonist assay) [2]: -1.39
potency fold loss from hBNP(1-32) (hNPR1 cGMP agonist assay) [2]: 25 fold
B3: Compound 2, P-(SEQ ID No:2)10-A-hBNP(3-32) (PAS attached to the alpha amino group of the N-terminal lysine 3) (ligand)
chain: PASPAAPAPASPAAPAPSAPAASPAAPAPASPAAPAPSAPAASPAAPAPASPAAPAPSAPAASPAAPAPASPAAPAPSAPAASPAAPAPASPAAPAPSAPAASPAAPAPASPAAPAPSAPAASPAAPAPASPAAPAPSAPAASPAAPAPASPAAPAPSAPAASPAAPAPASPAAPAPSAPAASPAAPAPASPAAPAPSAPAAKMVQGSGCFGRKMDRISSSSGLGCKVLRRH

From US20240199716A1 (ANTLIA BIOSCIENCE, published 2024)
